Where “and” joins values, the source holds several entries; their conditions need not be identical. Equal entries are not always repeated.

These results are taken from paper PMC6353796, “Thermostable Branched-Chain Amino Acid Transaminases From the Archaea Geoglobus acetivorans and Archaeoglobus fulgidus: Biochemical and Structural Characterization” (Frontiers in Bioengineering and Biotechnology, 2019).

The series concerns the molecule itself. Briefly: SEC; AF0933 on Superdex 200 HiLoad (1.6 x 60 cm) in 50 mM Tris-HCl, pH 7.5, 500 mM NaCl, 0.05 mM PLP; native molecular mass by size exclusion. (Size exclusion chromatography separates by hydrodynamic size, large species first.)

B1: AF0933, branched-chain amino acid transaminase (BCAT) from Archaeoglobus fulgidus (enzyme)
chain: MLYVYMDGEFVPENEAKVSIFDHGFLYGDGVFEGIRAYNGRVFRLKEHIDRLYDSAKAIDLEIPITKEEFMEIILETLRKNNLRDAYIRPIVTRGIGDLGLDPRKCQNPSIIVITKPWGKLYGDLYEKGLTAITVAVRRNSFDALPPNIKSLNYLNNILAKIEANAKGGDEAIFLDRNGYVSEGSGDNIFVVKNGAITTPPTINNLRGITREAVIEIINRLGIPFKETNIGLYDLYTADEVFVTGTAAEIAPIVVIDGRKIGDGKPGEITRKLMEEFSKLTESEGVPIYE
modifications: PLP covalently bound (Schiff base, internal aldimine) to Lys150
notes: Class IV branched-chain amino acid transaminase AF0933 of Archaeoglobus fulgidus; subunit 32.4 kDa, 290 amino acids; synthetic gene optimised for E. coli; Mainly homo-hexamer in solution with a small dimeric fraction; hexamer in the crystal; also called AF0933_holo; AF0933_GABC; source: E. coli Rosetta (DE3)-pLysS (pLATE51-AF0933), purified (heat step 70°C, Ni-NTA, Superdex 200)
For the protein B1, the “stoichiometry N” value was 6 and 2.

As a reminder, the stoichiometry N is the number of molecules, sites or subunits per partner or assembly.
